Data on 16 variants can be found in PMC5850324, “Interactions between the Hepatitis C Virus Nonstructural 2 Protein and Host Adaptor Proteins 1 and 4 Orchestrate Virus Release” (mBio, 2018).

B1: GLuc2-NS2 (hepatitis C virus nonstructural 2 protein, wild type) [hepatitis C virus (J6/JFH genome)] / GLuc1-tagged μ subunit of the AP-1B complex [not stated] (parent)
chain 1: YDASVHGQIGAALLVLITLFTLTPGYKTLLSRFLWWLCYLLTLAEAMVQEWAPPMQVRGGRDGIIWAVAIFCPGVVFDITKWLLAVLGPAYLLKGALTRVPYFVRAHALLRMCTMVRHLAGGRYVQMVLLALGRWTGTYIYDHLTPMSDWAANGLRDLAVAVEPIIFSPMEKKVIVWGAETAACGDILHGLPVSARLGREVLLGPADGYTSKGWSLL
chain 2: MSASAVFILDVKGKPLISRNYKGDVAMSKIEHFMPLLVQREEEGALAPLLSHGQVHFLWIKHSNLYLVATTSKNANASLVYSFLYKTIEVFCEYFKELEEESIRDNFVIVYELLDELMDFGFPQTTDSKILQEYITQQSNKLETGKSRVPPTVTNAVSWRSEGIKYKKNEVFIDVIESVNLLVNANGSVLLSEIVGTIKLKVFLSGMPELRLGLNDRVLFELTGRSKNKSVELEDVKFHQCVRLSRFDNDRTISFIPPDGDFELMSYRLSTQVKPLIWIESVIEKFSHSRVEIMVKAKGQFKKQSVANGVEISVPVPSDADSPRFKTSVGSAKYVPERNVVIWSIKSFPGGKEYLMRAHFGLPSVEKEEVEGRPPIGVKFEIPYFTVSGIQVRYMKIIEKSGYQALPWVRYITQSGDYQLRTS
B2: GLuc2-NS2 (hepatitis C virus nonstructural 2 protein, wild type) [hepatitis C virus (J6/JFH genome)] / GLuc1-tagged μ subunit of the AP-1A complex [not stated] (parent)
chain 1: B1 chain 1
chain 2: MSASAVYVLDLKGKVLICRNYRGDVDMSEVEHFMPILMEKEEEGMLSPILAHGGVRFMWIKHNNLYLVATSKKNACVSLVFSFLYKVVQVFSEYFKELEEESIRDNFVIIYELLDELMDFGYPQTTDSKILQEYITQEGHKLETGAPRPPATVTNAVSWRSEGIKYRKNEVFLDVIESVNLLVSANGNVLRSEIVGSIKMRVFLSGMPELRLGLNDKVLFDNTGRGKSKSVELEDVKFHQCVRLSRFENDRTISFIPPDGEFELMSYRLNTHVKPLIWIESVIEKHSHSRIEYMIKAKSQFKRRSTANNVEIHIPVPNDADSPKFKTTVGSVKWVPENSEIVWSIKSFPGGKEYLMRAHFGLPSVEAEDKEGKPPISVKFEIPYFTTSGIQVRYLKIIEKSGYQALPWVRYITQNGDYQLRTQ

One test covers variants of B1. Put plainly: PCA (protein-fragment complementation assay). Conditions: with GLuc1-tagged μ subunit of the AP-1B complex; parent: 1; read off a plot.
chain 1 L217A: the ratio to parent came to 0.76.

Take chain 1 L203A: the ratio to parent was 0.67. On the same count and under the same terms, under chain 1 L202A L203A L216A L217A stands 0.47; under chain 1 L202A L217A, 0.55; under chain 1 D207A, 0.79. Same read-out and setting: under chain 1 L216A stands 0.77. On the same count and under the same terms, to chain 1 E200A belongs 0.97; to chain 1 L202A, 0.8.

Variants of B2 are the subject of a further test. Nature of the test: PCA (protein-fragment complementation assay). The following applies: with GLuc1-tagged μ subunit of the AP-1A complex; parent: 1; read off a plot.
Regarding chain 1 D207A, the ratio to parent was 0.74. Still for that read-out and setting: to chain 1 L216A belongs 0.56. The same measure, in the same setting: under chain 1 L202A L217A stands 0.38. Same read-out and setting: under chain 1 L203A stands 0.67; under chain 1 L202A, 0.71.

Turning to chain 1 L217A, the ratio to parent came to 0.68. The same measure, in the same setting: to chain 1 E200A belongs 1; to chain 1 L202A L203A L216A L217A, 0.33.
